{"source": "paper PMC6987127", "about": "(Nature Communications, 2020)", "key": {"[1]": {"molecular_target": "TrkA from Vibrio parahaemolyticus, wild type (Vibrio parahaemolyticus)", "assay": "crystal structure; TrkH-TrkA complex crystallised in the presence of 10 mM ADP (TrkHA-ADP), 3.53 Å; 20 °C, magnesium acetate 100 mM, HEPES pH 7.2, PEG400 26%, 2-propanol 10%"}, "[2]": {"molecular_target": "TrkH from Vibrio parahaemolyticus, wild type (Vibrio parahaemolyticus) (UniProt Q87TN7)"}, "[3]": {"molecular_target": "TrkA from Vibrio parahaemolyticus, wild type (Vibrio parahaemolyticus)", "assay": "crystal structure; TrkH-TrkA complex crystallised in the presence of 10 mM ATPγS (TrkHA-ATPγS), 3.85 Å; 20 °C, MgCl2 50 mM, NH4H2PO4 50 mM, HEPES pH 7.3, PEG400 20%"}, "[4]": {"molecular_target": "TrkA from Vibrio parahaemolyticus, wild type (Vibrio parahaemolyticus)", "assay": "cryo-EM structure; TrkH-TrkA complex frozen on grids in the presence of 10 mM ATP (TrkHA-ATP), overall 3.0 Å; 150 mM KCl, 20 mM HEPES pH 7.5, 5 mM β-mercaptoethanol, 3.5 mM DM"}, "[5]": {"molecular_target": "T1, TrkH-TrkA complex (TrkHA) (Vibrio parahaemolyticus, UniProt Q87KD2)", "T1 construct": "gene VP3045; full-length TrkH with C-terminal TEV site and His10; full-length TrkA with N-terminal GST cut by TEV; each made in E. coli BL21(DE3) and mixed; for patch clamp both co-expressed from modified pET vectors in E. coli giant spheroplasts; TrkH dimer with TrkA tetramer; with Trk system potassium uptake protein TrkH", "T1 sequence (Q87KD2 1-458)": "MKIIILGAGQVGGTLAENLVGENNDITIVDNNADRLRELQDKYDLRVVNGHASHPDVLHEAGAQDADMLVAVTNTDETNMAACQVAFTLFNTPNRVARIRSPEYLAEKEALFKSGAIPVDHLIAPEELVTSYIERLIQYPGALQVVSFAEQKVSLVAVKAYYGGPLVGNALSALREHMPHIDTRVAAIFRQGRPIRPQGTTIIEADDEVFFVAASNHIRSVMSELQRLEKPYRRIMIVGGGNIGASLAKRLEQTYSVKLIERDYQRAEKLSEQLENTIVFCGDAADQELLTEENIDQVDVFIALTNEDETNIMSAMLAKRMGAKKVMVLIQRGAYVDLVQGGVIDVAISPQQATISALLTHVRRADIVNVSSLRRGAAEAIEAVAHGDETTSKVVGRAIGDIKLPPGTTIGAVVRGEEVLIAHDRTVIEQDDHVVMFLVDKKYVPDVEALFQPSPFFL", "T1 sequence (Q87TN7 1-485 partner)": "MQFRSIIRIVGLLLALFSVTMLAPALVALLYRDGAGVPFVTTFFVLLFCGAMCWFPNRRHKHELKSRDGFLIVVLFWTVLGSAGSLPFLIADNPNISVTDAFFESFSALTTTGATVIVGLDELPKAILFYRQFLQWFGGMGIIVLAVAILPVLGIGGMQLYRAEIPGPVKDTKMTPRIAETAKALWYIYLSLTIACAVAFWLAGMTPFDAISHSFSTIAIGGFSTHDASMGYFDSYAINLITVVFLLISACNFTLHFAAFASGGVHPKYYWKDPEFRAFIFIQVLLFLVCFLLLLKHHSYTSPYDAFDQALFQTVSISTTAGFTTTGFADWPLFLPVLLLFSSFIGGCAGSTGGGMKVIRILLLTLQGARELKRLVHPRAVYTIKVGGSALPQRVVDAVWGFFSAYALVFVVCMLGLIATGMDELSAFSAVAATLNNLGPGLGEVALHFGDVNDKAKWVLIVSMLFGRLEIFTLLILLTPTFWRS", "assay": "single-channel patch clamp, inside-out patches of E. coli giant spheroplasts", "format": "biochemical", "conditions": "150 mM KCl, 10 mM HEPES pH 7.4, same wild-type value also cited to earlier work"}, "[6]": {"molecular_target": "T1, TrkH-TrkA complex (TrkHA)", "assay": "X-ray crystallography, […] A", "format": "binding", "conditions": "10 mM ATPγS; MgCl2 50 mM; pH 7.3; 20 °C; sites: N1 and N2 domains of TrkA"}, "[7]": {"molecular_target": "T1, TrkH-TrkA complex (TrkHA)", "assay": "X-ray crystallography, […] A", "format": "binding", "conditions": "10 mM ADP; pH 7.2; 20 °C; site: N2 domain of TrkA only"}, "[8]": {"molecular_target": "the molecule itself", "assay": "crystal structure; TrkH-TrkA complex crystallised in the presence of 10 mM ADP (TrkHA-ADP), 3.53 Å; 20 °C, magnesium acetate 100 mM, HEPES pH 7.2, PEG400 26%, 2-propanol 10%"}}}
{"molecule": "TrkA from Vibrio parahaemolyticus, wild type (natural protein)", "values": [{"measurement": "stoichiometry N", "setting": "[1]", "result": 4}, {"measurement": "single-channel open probability (Popen) of TrkHA wt, inside-out patches of E. coli spheroplasts, in ADP", "setting": "[2]", "result": 0.02}, {"measurement": "single-channel open probability (Popen) of TrkHA wt, inside-out patches of E. coli spheroplasts, in ATP", "setting": "[2]", "result": 0.87}, {"measurement": "single-channel open probability (Popen) of TrkHA wt, inside-out patches of E. coli spheroplasts, no ligand", "setting": "[2]", "result": 0.17}, {"measurement": "stoichiometry N", "setting": "[3]", "result": 4}, {"measurement": "stoichiometry N", "setting": "[4]", "result": 2}]}
{"molecule": "Nc1ncnc2c1ncn2[C@@H]1O[C@H](COP(=O)(O)OP(=O)(O)OP(=O)(O)O)[C@@H](O)[C@H]1O", "note": "[ATP]", "values": [{"measurement": "Popen at 5 mM", "setting": "[5]; 5 mM ATP, activator", "result": "0.87 ± 0.003"}]}
{"molecule": "Nc1ncnc2c1ncn2[C@@H]1O[C@H](COP(=O)(O)OP(=O)(O)OP(O)(O)=S)[C@@H](O)[C@H]1O", "note": "[ATPγS]", "values": [{"measurement": "X-ray crystallography, 3.85 A", "setting": "[6]", "result": "ATPγS is found in both the N1 and N2 domains"}]}
{"molecule": "Nc1ncnc2c1ncn2[C@@H]1O[C@H](COP(=O)(O)OP(=O)(O)O)[C@@H](O)[C@H]1O", "note": "[ADP]", "values": [{"measurement": "X-ray crystallography, 3.53 A", "setting": "[7]", "result": "each TrkA has a prominent non-protein density in the N2 domain in which we modeled"}, {"measurement": "Popen at 5 mM", "setting": "[5]; 5 mM ADP, closes channel", "result": "0.02 ± 0.002"}]}
{"molecule": "TrkH from Vibrio parahaemolyticus, wild type (natural protein, UniProt Q87TN7 1-485, looked up, TrkH, Vibrio parahaemolyticus, full-length gene in a modified pET vector; TEV protease site followed by a 10-polyhistidine tag at the C terminus; printed residue numbers run to 485; Homodimer in all three structures; also called TrkH (wt)) MQFRSIIRIVGLLLALFSVTMLAPALVALLYRDGAGVPFVTTFFVLLFCGAMCWFPNRRHKHELKSRDGFLIVVLFWTVLGSAGSLPFLIADNPNISVTDAFFESFSALTTTGATVIVGLDELPKAILFYRQFLQWFGGMGIIVLAVAILPVLGIGGMQLYRAEIPGPVKDTKMTPRIAETAKALWYIYLSLTIACAVAFWLAGMTPFDAISHSFSTIAIGGFSTHDASMGYFDSYAINLITVVFLLISACNFTLHFAAFASGGVHPKYYWKDPEFRAFIFIQVLLFLVCFLLLLKHHSYTSPYDAFDQALFQTVSISTTAGFTTTGFADWPLFLPVLLLFSSFIGGCAGSTGGGMKVIRILLLTLQGARELKRLVHPRAVYTIKVGGSALPQRVVDAVWGFFSAYALVFVVCMLGLIATGMDELSAFSAVAATLNNLGPGLGEVALHFGDVNDKAKWVLIVSMLFGRLEIFTLLILLTPTFWRS", "values": [{"measurement": "stoichiometry N", "setting": "[8]", "result": 2}]}
